Experimental data reported in publication doi:10.1101/2025.09.09.675230.

Assays:
[1] = molecular target: Measles virus hemagglutinin (H) ectodomain with twin StrepII tag (HECT-TS), residues 149-617 (Measles virus strain IC323 (Ichinose-B95a)); test: cryo-EM structure
[2] = molecular target: Measles virus hemagglutinin (H) ectodomain, untagged (HECT), residues 149-617 (Measles virus strain IC323 (Ichinose-B95a)); test: cryo-EM structure

| Substance | stoichiometry N [1] | stoichiometry N [2] |
| --- | --- | --- |
| Measles virus hemagglutinin (H) ectodomain with twin StrepII tag (HECT-TS), residues 149-617 (domain or fragment) | 2 |  |
| Measles virus hemagglutinin (H) ectodomain, untagged (HECT), residues 149-617 (domain or fragment) |  | 2 |
